Source: patent US10941182 (Amgen, dated 2021)
Starred links: 1 amine or outer side, 2 acyl side, 3 side chain; linkers in the order of their positions; H or OH if unused. Non-standard residues stand in square brackets, D forms with d. Primed or numbered codes have the meaning given here. *: point of attachment. NPipG = 2-(piperidin-4-ylamino)acetic acid, O=C(CN(C1CCN([*:3])CC1)[*:1])[*:2]; AC4Abu = α-carboxy-4-aminobutyric acid, O=C(C(CCN[*:1])C(=O)[*:3])[*:2]; dBip = N[C@H](Cc1ccc(-c2ccccc2)cc1)C(=O)O; Oic = O=C(O)[C@@H]1C[C@@H]2CCCC[C@@H]2N1; Phe(4-Cl) = N[C@@H](Cc1ccc(Cl)cc1)C(=O)O; Phe(4-I) = N[C@@H](Cc1ccc(I)cc1)C(=O)O; γGlu = O=C(O)[C@H](CCC(=O)[*:2])N[*:1]; HOOC(CH2)8CO = O=C(O)CCCCCCCCC(=O)*; d(β3hF) = N[C@@H](CC(=O)O)Cc1ccccc1; NMeR = CN[C@@H](CCCNC(=N)N)C(=O)O; Palmitoyl = CCCCCCCCCCCCCCCC(=O)*; Tridecanoyl = CCCCCCCCCCCCC(=O)*; hArg = N=C(N)NCCCC[C@H](N)C(=O)O; Tic = O=C(O)[C@@H]1Cc2ccccc2CN1; dTic = O=C(O)[C@H]1Cc2ccccc2CN1; β3hF = N[C@H](CC(=O)O)Cc1ccccc1; Cha = N[C@@H](CC1CCCCC1)C(=O)O; NMeL = CN[C@@H](CC(C)C)C(=O)O; β3hP = O=C(O)C[C@@H]1CCCN1; Pip = O=C(O)[C@@H]1CCCCN1; Nle = CCCC[C@H](N)C(=O)O; Orn = NCCC[C@H](N)C(=O)O; Pip′ = not defined here; AEEA = NCCOCCOCC(=O)O; Aib = CC(C)(N)C(=O)O

T1: rat APJ receptor (rat, UniProt Q9JHG3 1-377)
T1 sequence (looked up): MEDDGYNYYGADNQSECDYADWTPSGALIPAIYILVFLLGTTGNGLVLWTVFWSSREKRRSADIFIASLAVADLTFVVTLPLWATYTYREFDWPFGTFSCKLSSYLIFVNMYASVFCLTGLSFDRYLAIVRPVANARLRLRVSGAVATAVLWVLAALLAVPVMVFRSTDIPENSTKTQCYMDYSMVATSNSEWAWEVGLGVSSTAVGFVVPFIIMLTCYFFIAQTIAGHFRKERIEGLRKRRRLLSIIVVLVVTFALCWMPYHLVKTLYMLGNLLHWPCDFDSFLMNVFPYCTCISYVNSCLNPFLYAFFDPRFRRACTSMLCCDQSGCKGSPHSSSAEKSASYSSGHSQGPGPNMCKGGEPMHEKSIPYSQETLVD

T2: human APJ receptor (human, UniProt P35414 1-380)
T2 sequence (looked up): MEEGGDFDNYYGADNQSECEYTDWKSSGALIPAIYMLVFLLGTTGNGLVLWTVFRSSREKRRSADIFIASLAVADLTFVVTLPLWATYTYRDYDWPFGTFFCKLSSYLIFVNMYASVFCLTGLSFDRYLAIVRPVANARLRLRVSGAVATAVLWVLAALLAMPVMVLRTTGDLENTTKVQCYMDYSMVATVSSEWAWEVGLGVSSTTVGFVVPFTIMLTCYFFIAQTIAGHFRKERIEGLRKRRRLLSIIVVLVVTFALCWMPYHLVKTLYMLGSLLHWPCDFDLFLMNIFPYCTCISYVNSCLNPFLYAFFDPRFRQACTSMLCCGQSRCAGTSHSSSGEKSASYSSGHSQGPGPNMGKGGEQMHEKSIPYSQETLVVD

B1: SEQ ID NO: 399 (peptide)
peptide: XXXXQRPRLSHKGPXPF
modifications: {TDA}[AC4Abu][AC4Abu][Aeea][Aeea]QRP[NMeArg]LSHKGP[Nle]P[4-Cl-F]{COOH}
B2: SEQ ID NO: 462 (peptide)
peptide: XXXQRPRLSHKGPXPF
modifications: {TDA}[AC4Abu][AC4Abu][Aeea]QRP[NMeArg]LSHKGP[Nle]P[4-Cl-F]{COOH}
B3: SEQ ID NO: 495 (peptide)
peptide: XXXQRPRLSHKGPXPF
modifications: {PDA}[AC4Abu][Aeea][Aeea]QRP[NMeArg]LSHKGP[Nle]P[4-Cl-F]{COOH}
B4: SEQ ID NO: 618 (peptide)
peptide: Palmitoyl-[γGlu][AEEA][AEEA][dQ]RP[NMeR][Cha]SH[Orn]G[Oic][Nle][β3hP][d(β3hF)]-OH
SMILES: CCCCCCCCCCCCCCCC(=O)N[C@@H](CCC(=O)NCCOCCOCC(=O)NCCOCCOCC(=O)N[C@H](CCC(N)=O)C(=O)N[C@@H](CCCNC(=N)N)C(=O)N1CCC[C@H]1C(=O)N(C)[C@@H](CCCNC(=N)N)C(=O)N[C@@H](CC1CCCCC1)C(=O)N[C@@H](CO)C(=O)N[C@@H](Cc1c[nH]cn1)C(=O)N[C@@H](CCCN)C(=O)NCC(=O)N1[C@H](C(=O)N[C@@H](CCCC)C(=O)N2CCC[C@H]2CC(=O)N[C@@H](CC(=O)O)Cc2ccccc2)C[C@@H]2CCCC[C@@H]21)C(=O)O
B5: SEQ ID NO: 534 (peptide)
peptide: Tridecanoyl-[AC4Abu][AC4Abu][AEEA][AEEA][dQ]RP[NMeR][Cha]SHKG[Oic][Nle][Aib][Phe(4-Cl)]-OH
SMILES: CCCCCCCCCCCCC(=O)NCCC(C(=O)O)C(=O)NCCC(C(=O)O)C(=O)NCCOCCOCC(=O)NCCOCCOCC(=O)N[C@H](CCC(N)=O)C(=O)N[C@@H](CCCNC(=N)N)C(=O)N1CCC[C@H]1C(=O)N(C)[C@@H](CCCNC(=N)N)C(=O)N[C@@H](CC1CCCCC1)C(=O)N[C@@H](CO)C(=O)N[C@@H](Cc1c[nH]cn1)C(=O)N[C@@H](CCCCN)C(=O)NCC(=O)N1[C@H](C(=O)N[C@@H](CCCC)C(=O)NC(C)(C)C(=O)N[C@@H](Cc2ccc(Cl)cc2)C(=O)O)C[C@@H]2CCCC[C@@H]21
B6: SEQ ID NO: 536 (peptide)
peptide: Tridecanoyl-[AC4Abu][AEEA][AC4Abu][dQ]RP[NMeR][Cha]SHKG[Oic][Nle][Aib][Phe(4-Cl)]-OH
SMILES: CCCCCCCCCCCCC(=O)NCCC(C(=O)O)C(=O)NCCOCCOCC(=O)NCCC(C(=O)O)C(=O)N[C@H](CCC(N)=O)C(=O)N[C@@H](CCCNC(=N)N)C(=O)N1CCC[C@H]1C(=O)N(C)[C@@H](CCCNC(=N)N)C(=O)N[C@@H](CC1CCCCC1)C(=O)N[C@@H](CO)C(=O)N[C@@H](Cc1c[nH]cn1)C(=O)N[C@@H](CCCCN)C(=O)NCC(=O)N1[C@H](C(=O)N[C@@H](CCCC)C(=O)NC(C)(C)C(=O)N[C@@H](Cc2ccc(Cl)cc2)C(=O)O)C[C@@H]2CCCC[C@@H]21
B7: SEQ ID NO: 118 (peptide)
peptide: XXXQRPRLSHKGPXPF
modifications: {pIFBu}[AC4Abu][Aeea][Aeea]QRP[NMeArg]LSHKGP[Nle]P[4-Cl-F]{COOH}
B8: SEQ ID NO: 647 (peptide)
peptide: Palmitoyl-[AC4Abu][AEEA][AEEA][dQ]RP[NMeR][Cha]SHKG[Pip′][Nle]P[β3hF]-OH
B9: SEQ ID NO: 535 (peptide)
peptide: Tridecanoyl-[AC4Abu][AC4Abu][AEEA][dQ]RP[NMeR][Cha]SHKG[Oic][Nle][Aib][Phe(4-Cl)]-OH
SMILES: CCCCCCCCCCCCC(=O)NCCC(C(=O)O)C(=O)NCCC(C(=O)O)C(=O)NCCOCCOCC(=O)N[C@H](CCC(N)=O)C(=O)N[C@@H](CCCNC(=N)N)C(=O)N1CCC[C@H]1C(=O)N(C)[C@@H](CCCNC(=N)N)C(=O)N[C@@H](CC1CCCCC1)C(=O)N[C@@H](CO)C(=O)N[C@@H](Cc1c[nH]cn1)C(=O)N[C@@H](CCCCN)C(=O)NCC(=O)N1[C@H](C(=O)N[C@@H](CCCC)C(=O)NC(C)(C)C(=O)N[C@@H](Cc2ccc(Cl)cc2)C(=O)O)C[C@@H]2CCCC[C@@H]21
B10: SEQ ID NO: 599 (peptide)
peptide: Palmitoyl-[AC4Abu][AEEA][AEEA][dQ]RP[NMeR][Cha]SHKG[Pip][Nle]P[dTic]-OH
SMILES: CCCCCCCCCCCCCCCC(=O)NCCC(C(=O)O)C(=O)NCCOCCOCC(=O)NCCOCCOCC(=O)N[C@H](CCC(N)=O)C(=O)N[C@@H](CCCNC(=N)N)C(=O)N1CCC[C@H]1C(=O)N(C)[C@@H](CCCNC(=N)N)C(=O)N[C@@H](CC1CCCCC1)C(=O)N[C@@H](CO)C(=O)N[C@@H](Cc1c[nH]cn1)C(=O)N[C@@H](CCCCN)C(=O)NCC(=O)N1CCCC[C@H]1C(=O)N[C@@H](CCCC)C(=O)N1CCC[C@H]1C(=O)N1Cc2ccccc2C[C@@H]1C(=O)O
B11: SEQ ID NO: 645 (peptide)
peptide: Palmitoyl-[AC4Abu][AEEA][AEEA][dQ]RP[NPipG][Cha]SHKG[Pip′][Nle][Aib][Phe(4-Cl)]-OH
B12: SEQ ID NO: 474 (peptide)
peptide: {HOOC(CH2)8CO}-[γGlu][AEEA][AEEA][hArg]Q[hArg]P[NMeR][Cha]SHKG[Oic][Nle]P[Phe(4-Cl)]-OH
SMILES: CCCC[C@H](NC(=O)[C@@H]1C[C@@H]2CCCC[C@@H]2N1C(=O)CNC(=O)[C@H](CCCCN)NC(=O)[C@H](Cc1c[nH]cn1)NC(=O)[C@H](CO)NC(=O)[C@H](CC1CCCCC1)NC(=O)[C@H](CCCNC(=N)N)N(C)C(=O)[C@@H]1CCCN1C(=O)[C@H](CCCCNC(=N)N)NC(=O)[C@H](CCC(N)=O)NC(=O)[C@H](CCCCNC(=N)N)NC(=O)COCCOCCNC(=O)COCCOCCNC(=O)CC[C@H](NC(=O)CCCCCCCCC(=O)O)C(=O)O)C(=O)N1CCC[C@H]1C(=O)N[C@@H](Cc1ccc(Cl)cc1)C(=O)O
B13: SEQ ID NO: 509 (peptide)
peptide: XXXQRPRLSHKGPXPF
modifications: {Sebacicacid}[AC4Abu][Aeea][Aeea]QRP[NMeArg]LSHKGP[Nle]P[4-Cl-F]{COOH}
B14: SEQ ID NO: 533 (peptide)
peptide: Tridecanoyl-[AC4Abu][AC4Abu][dQ]RP[NMeR][Cha]SHKG[Oic][Nle][Aib][Phe(4-Cl)]-OH
SMILES: CCCCCCCCCCCCC(=O)NCCC(C(=O)O)C(=O)NCCC(C(=O)O)C(=O)N[C@H](CCC(N)=O)C(=O)N[C@@H](CCCNC(=N)N)C(=O)N1CCC[C@H]1C(=O)N(C)[C@@H](CCCNC(=N)N)C(=O)N[C@@H](CC1CCCCC1)C(=O)N[C@@H](CO)C(=O)N[C@@H](Cc1c[nH]cn1)C(=O)N[C@@H](CCCCN)C(=O)NCC(=O)N1[C@H](C(=O)N[C@@H](CCCC)C(=O)NC(C)(C)C(=O)N[C@@H](Cc2ccc(Cl)cc2)C(=O)O)C[C@@H]2CCCC[C@@H]21
B15: SEQ ID NO: 288 (peptide)
peptide: {HOOC(CH2)8CO}-[γGlu][AEEA][AEEA]Q[hArg]P[dR][NMeL]SHKG[Oic][Phe(4-I)]P[dBip]-OH
SMILES: CC(C)C[C@@H](C(=O)N[C@@H](CO)C(=O)N[C@@H](Cc1c[nH]cn1)C(=O)N[C@@H](CCCCN)C(=O)NCC(=O)N1[C@H](C(=O)N[C@@H](Cc2ccc(I)cc2)C(=O)N2CCC[C@H]2C(=O)N[C@H](Cc2ccc(-c3ccccc3)cc2)C(=O)O)C[C@@H]2CCCC[C@@H]21)N(C)C(=O)[C@@H](CCCNC(=N)N)NC(=O)[C@@H]1CCCN1C(=O)[C@H](CCCCNC(=N)N)NC(=O)[C@H](CCC(N)=O)NC(=O)COCCOCCNC(=O)COCCOCCNC(=O)CC[C@H](NC(=O)CCCCCCCCC(=O)O)C(=O)O
B16: SEQ ID NO: 598 (peptide)
peptide: Palmitoyl-[AC4Abu][AEEA][AEEA][dQ]RP[NMeR][Cha]SHKG[Pip][Nle]P[Tic]-OH
SMILES: CCCCCCCCCCCCCCCC(=O)NCCC(C(=O)O)C(=O)NCCOCCOCC(=O)NCCOCCOCC(=O)N[C@H](CCC(N)=O)C(=O)N[C@@H](CCCNC(=N)N)C(=O)N1CCC[C@H]1C(=O)N(C)[C@@H](CCCNC(=N)N)C(=O)N[C@@H](CC1CCCCC1)C(=O)N[C@@H](CO)C(=O)N[C@@H](Cc1c[nH]cn1)C(=O)N[C@@H](CCCCN)C(=O)NCC(=O)N1CCCC[C@H]1C(=O)N[C@@H](CCCC)C(=O)N1CCC[C@H]1C(=O)N1Cc2ccccc2C[C@H]1C(=O)O

The binders below were run against T1, rat APJ receptor (assay: cell-based or functional assay).

Binder	EC50 Rat APJ Receptor [nM]
B1	0.104
B2	0.0793
B3	0.532
B4	11.1
B5	3.75
B6	2.03
B7	0.171
B8	5.83
B9	5.15
B10	1.01
B11	0.395
B12	3.76
B13	0.865
B14	3.88
B15	38.5
B16	2.84

Each binder was assayed against T2, human APJ receptor (assay: cell-based or functional assay).

Binder	EC50 Human APJ Receptor [pM]
B1	33.5
B2	15.4
B3	83
B4	2460
B5	683
B6	592
B7	47.5
B8	1580
B9	798
B10	440
B11	254
B12	1140
B13	179
B14	629
B15	38600
B16	463
